Data from the Human Domainome abundance scans (Beltran et al. 2025).
± gives the uncertainty stated by the source.

B1: 1-phosphatidylinositol 4,5-bisphosphate phosphodiesterase gamma-2, residues 772 to 827; numbered along this chain, P16885 (parent)
chain: RTVKALYDYKAKRSDELSFCRGALIHNVSKEPGGWWKGDYGTRIQQYFPSNYVEDI

Variants of: B1
Test: abundance fitness (aPCA) (normalised: wild type 0, dead -1); higher = more abundant; growth selection in yeast, the domain comes from the species named
Details: Homo sapiens

Point of comparison: RTVKALYDYKAKRSDELSFCRGALIHNVSKEPGGPWKGDYGTRIQQYFPSNYVEDI, abundance fitness -0.616 ± 0.12. Against it:
- RTVKALYDYKAKRSDELSFCRGALIHNVSKEPGGWFKGDYGTRIQQYFPSNYVEDI — within error, -0.308 ± 0.24
- RTVKALYDYKAKRSDELSFCRGALIHNVSKEPGGWGKGDYGTRIQQYFPSNYVEDI — within error, -0.58 ± 0.12
- RTVKALYDYKAKRSDELSFCRGALIHNVSKEPGGWIKGDYGTRIQQYFPSNYVEDI — within error, -0.611 ± 0.48
- RTVKALYDYKAKRSDELSFCRGALIHNVSKEPGGWKKGDYGTRIQQYFPSNYVEDI — within error, -0.705 ± 0.27
- RTVKALYDYKAKRSDELSFCRGALIHNVSKEPGGWCKGDYGTRIQQYFPSNYVEDI — higher, -0.108 ± 0.045
- RTVKALYDYKAKRSDELSFCRGALIHNVSKEPGGWEKGDYGTRIQQYFPSNYVEDI — within error, -0.809 ± 0.33
- RTVKALYDYKAKRSDELSFCRGALIHNVSKEPGGWTKGDYGTRIQQYFPSNYVEDI — within error, -0.89 ± 0.31
- RTVKALYDYKAKRSDELSFCRGALIHNVSKEPGGWDKGDYGTRIQQYFPSNYVEDI — within error, -0.576 ± 0.28
- RTVKALYDYKAKRSDELSFCRGALIHNVSKEPGGWYKGDYGTRIQQYFPSNYVEDI — higher, -0.368 ± 0.12
- RTVKALYDYKAKRSDELSFCRGALIHNVSKEPGGWAKGDYGTRIQQYFPSNYVEDI — higher, -0.214 ± 0.085
- RTVKALYDYKAKRSDELSFCRGALIHNVSKEPGGWRKGDYGTRIQQYFPSNYVEDI — within error, -0.724 ± 0.081
- RTVKALYDYKAKRSDELSFCRGALIHNVSKEPGGWMKGDYGTRIQQYFPSNYVEDI — higher, -0.108 ± 0.12
- RTVKALYDYKAKRSDELSFCRGALIHNVSKEPGGWSKGDYGTRIQQYFPSNYVEDI — higher, 0.22 ± 0.088
- RTVKALYDYKAKRSDELSFCRGALIHNVSKEPGGWLKGDYGTRIQQYFPSNYVEDI — higher, -0.095 ± 0.06
- RTVKALYDYKAKRSDELSFCRGALIHNVSKEPGGWQKGDYGTRIQQYFPSNYVEDI — within error, -0.839 ± 0.29
- RTVKALYDYKAKRSDELSFCRGALIHNVSKEPGGWWFGDYGTRIQQYFPSNYVEDI — within error, -0.371 ± 0.21
- RTVKALYDYKAKRSDELSFCRGALIHNVSKEPGGWWAGDYGTRIQQYFPSNYVEDI — within error, -0.622 ± 0.082
- RTVKALYDYKAKRSDELSFCRGALIHNVSKEPGGWWIGDYGTRIQQYFPSNYVEDI — higher, -0.301 ± 0.17
- RTVKALYDYKAKRSDELSFCRGALIHNVSKEPGGWWQGDYGTRIQQYFPSNYVEDI — within error, -0.407 ± 0.15
- RTVKALYDYKAKRSDELSFCRGALIHNVSKEPGGWWWGDYGTRIQQYFPSNYVEDI — within error, -0.908 ± 0.22
- RTVKALYDYKAKRSDELSFCRGALIHNVSKEPGGWWPGDYGTRIQQYFPSNYVEDI — within error, -0.617 ± 0.19
- RTVKALYDYKAKRSDELSFCRGALIHNVSKEPGGWWCGDYGTRIQQYFPSNYVEDI — higher, -0.318 ± 0.1
- RTVKALYDYKAKRSDELSFCRGALIHNVSKEPGGWWEGDYGTRIQQYFPSNYVEDI — within error, -0.757 ± 0.49
- RTVKALYDYKAKRSDELSFCRGALIHNVSKEPGGWWRGDYGTRIQQYFPSNYVEDI — higher, -0.091 ± 0.067
- RTVKALYDYKAKRSDELSFCRGALIHNVSKEPGGWWTGDYGTRIQQYFPSNYVEDI — higher, -0.32 ± 0.14
- RTVKALYDYKAKRSDELSFCRGALIHNVSKEPGGWWLGDYGTRIQQYFPSNYVEDI — higher, -0.276 ± 0.077
- RTVKALYDYKAKRSDELSFCRGALIHNVSKEPGGWWGGDYGTRIQQYFPSNYVEDI — within error, -0.887 ± 0.3
- RTVKALYDYKAKRSDELSFCRGALIHNVSKEPGGWWVGDYGTRIQQYFPSNYVEDI — higher, -0.213 ± 0.048
- RTVKALYDYKAKRSDELSFCRGALIHNVSKEPGGWWYGDYGTRIQQYFPSNYVEDI — within error, -0.301 ± 0.39
- RTVKALYDYKAKRSDELSFCRGALIHNVSKEPGGWWMGDYGTRIQQYFPSNYVEDI — within error, -0.548 ± 0.15
- RTVKALYDYKAKRSDELSFCRGALIHNVSKEPGGWWDGDYGTRIQQYFPSNYVEDI — within error, -0.486 ± 0.49
- RTVKALYDYKAKRSDELSFCRGALIHNVSKEPGGMWKGDYGTRIQQYFPSNYVEDI — higher, -0.225 ± 0.11
- RTVKALYDYKAKRSDELSFCRGALIHNVSKEPGGRWKGDYGTRIQQYFPSNYVEDI — higher, 0.089 ± 0.074
- RTVKALYDYKAKRSDELSFCRGALIHNVSKEPGGDWKGDYGTRIQQYFPSNYVEDI — within error, -0.381 ± 0.36
- RTVKALYDYKAKRSDELSFCRGALIHNVSKEPGGFWKGDYGTRIQQYFPSNYVEDI — higher, 0.044 ± 0.19
- RTVKALYDYKAKRSDELSFCRGALIHNVSKEPGGSWKGDYGTRIQQYFPSNYVEDI — higher, -0.273 ± 0.14
- RTVKALYDYKAKRSDELSFCRGALIHNVSKEPGGVWKGDYGTRIQQYFPSNYVEDI — higher, -0.29 ± 0.057
- RTVKALYDYKAKRSDELSFCRGALIHNVSKEPGGGWKGDYGTRIQQYFPSNYVEDI — within error, -0.625 ± 0.072
- RTVKALYDYKAKRSDELSFCRGALIHNVSKEPGGAWKGDYGTRIQQYFPSNYVEDI — higher, -0.383 ± 0.062
- RTVKALYDYKAKRSDELSFCRGALIHNVSKEPGGTWKGDYGTRIQQYFPSNYVEDI — within error, -0.281 ± 0.31
- RTVKALYDYKAKRSDELSFCRGALIHNVSKEPGGIWKGDYGTRIQQYFPSNYVEDI — within error, -0.611 ± 0.32
- RTVKALYDYKAKRSDELSFCRGALIHNVSKEPGGKWKGDYGTRIQQYFPSNYVEDI — within error, -0.58 ± 0.17
- RTVKALYDYKAKRSDELSFCRGALIHNVSKEPGGEWKGDYGTRIQQYFPSNYVEDI — higher, -0.217 ± 0.062
- RTVKALYDYKAKRSDELSFCRGALIHNVSKEPGGLWKGDYGTRIQQYFPSNYVEDI — higher, -0.058 ± 0.072
- RTVKALYDYKAKRSDELSFCRGALIHNVSKEPGGWWKGDLGTRIQQYFPSNYVEDI — higher, 0.041 ± 0.068
- RTVKALYDYKAKRSDELSFCRGALIHNVSKEPGGWWKGDSGTRIQQYFPSNYVEDI — higher, -0.284 ± 0.093
